{"source": "the NTF2 design screens of Basanta et al. (2020)", "data": [{"test": "protease stability score; higher = more stable; yeast display proteolysis, trypsin and chymotrypsin;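 further: log10 excess protease needed over predicted unfolded state with 0 meaning unfolded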", "values": [{"sequence": "DEQDQARRIVRHLLSAIRNNDPHRFQNNVDENVTLQYGDKTYNGDEDVHKYIEQFKREQKNARLRLLRLRIDNGRIDVIVRLRADHNGKEIRQIIVFHLVVRNGQARVETAHEG", "protease stability score": 1.17}, {"sequence": "DKEDWTRLTNVLEDNNEHQFQDMLDKDVKIDVGDKRIHGRERAKHFLRKYEREVDEITVYSINVSGDNVKVDRVAKHNGQSVRFVMVFRAHNGKVQEMRIEFRDERQKEIWNQLEQ", "protease stability score": 0.231}, {"sequence": "DEENEQLFNEFLKAMEHGDPNRLNQLMDPDVHIRVGDKQIHGREEAAREIVRQMKEQNRHIDSIEVSAENGELTVNVEMFQTHDGKPKKYTYRAKIVFENGKIKHIDRKHSQ", "protease stability score": 0.884}, {"sequence": "DQEEAKKVAEQAIKYVENGNLTELMDMLKDGGEYQVADDKKHGKEVLYKLVKILQRLGVEVEFKRTEIEGNTVTTDVDYRLGDEEATAQAHAEVQGGRIDRVQIDADEHLKKWIKHG", "protease stability score": 0.606}, {"sequence": "EDDVKRKQETWLKAVEDNNPEEAEEQADKHVQVVIGDKRIRGMEEMAHFIEHERRQADIRIQDYRISARGDKVRANISMHFNVNGTPEQASIKIQVTLSNGKIRKMVFRFDDQEFRRIQS", "protease stability score": 1.1}, {"sequence": "DDDVLRKVERLIEVENEGNEDEARELMDPNAEFQVGDKSVHGREEYASNMKKEQKELKIEIHHVTQSVHNGEADVHLTMRVNDNGRPKEQHYHATFEAHNGRIVYVKKQMRG", "protease stability score": -0.099}, {"sequence": "DDKEEAESIAKTLQKILDTGNEEDYLNMADEDVEINIGDKHYRGREEFLKWVQKMTRQVDHLRIDVKSVEVSGDKAHIQYHLELNHDGKNETHKLVMVARKSNGRLTIKKITHQ", "protease stability score": 1.19}, {"sequence": "DQQKEAEKFARDMRRALDTGDERDVANLFPPDAKLRYGDKSFHGMDDIFKWVVTVLRQADHIHFQVRSVRDQGDKADIEFELRYDVNGQDRSRIFHAEVRHNGDNVQVEMNVEK", "protease stability score": 0.326}, {"sequence": "DEEARRVWHKLMDALRTGDPEKFRNNADPNARIQYGNETIHGMRDNARTVMTMLHRLDVEWEIKDVKVRPNRIDVIYVLRVHIDGKPYQVHIQADATFHNGKLQSIRKRVDEDEQRKLDR", "protease stability score": 0.379}, {"sequence": "DDRHEMKTALKQLIDAIRQGNPDTIMSLLDPNVTFTYGDQNIRGREHVNTELVHRRNRVDNVHVNLQDIDQDGEKLHARFQMVLRRNGRNDTRDMVLVAQVHNGKARIRRLHHG", "protease stability score": 0.557}, {"sequence": "DEDAARRMLEFLRQMEQGNEHELRHLADPNARMRVGDHTLHGMEDIAREQVERNRRLRFSNKVDRIKNDGDKVNLQIRFQIDVNGKPFTDVVSVNVHEHNGKIEFVEFRVPEEFREKVKR", "protease stability score": 0.1}, {"sequence": "DEHLFKRLVDIIKHGNFEELARQADENARVVVGDRTVKGRNEVEELMQRLRQKIDHVQIDHWSRHGDTVTISFVANVNGRRLEFTLMAAFDNGRIHEVVFHSTNEEVTKIMKEILS", "protease stability score": 1.93}, {"sequence": "DEEAIDLANRFLEARKTGDPDKAREQADPNATFKYGDREVHGMDEMARQIEHEHKESRVNIDVDRVTDTGDTAKFDMSVRENHNGQPHTVKMDMVVKAHNGHIKHLSYTLNG", "protease stability score": -0.514}, {"sequence": "DEDDVNKAHNILKHGDWEKFASQADENVRIHIGNKEVNGRERASEVLKLIRDRVDSEEIKRMSFHGDKVVVDAEQVVNGKKVRFVIRVKAHNGRIKQMDFQFRNEEDKKKFDEAVN", "protease stability score": 0.477}, {"sequence": "DEDDVQHAQKLVEENDEDKLKRMFPPDARAHIGDKEVHGMDKWADILKTLHHKADSVHFKHVSVSGNSVNVNFVMVVDGQSIEFVLVIDVHNGRARRLRIDFRNEEQQKLFEKLIS", "protease stability score": 1.3}, {"sequence": "DEENIRVYQEMLEAIKEGDQKRVQELVDPNVEAVYGESQVHGREDIARDLRRVREESRRDVTTYKVTDTNGQITINVDFFQTHDGRPTRKEASVHVQITNGKVKFVEMRDDQ", "protease stability score": 0.248}, {"sequence": "EQDQIRRLKTFIKIIDHNNPSKVRELLDKDVHIDIGDKVIRGREEYADEIHKLQKEMRVKLQVDDIKDHGEHVHFTARWYARVNGRPRTNEIHVQARAHNGHVTSIKVHMDPRVLKEMRS", "protease stability score": -0.027}, {"sequence": "DERNNEFAKHFIEVLNQGDWKRLNEMLDPNVKVEIGDTTIHGRENFSRNVKQDLDHLRQEFHITSMDASGNKVEVRADVINRDNGKPREFKMKMEIRFHNGRVKEIKLDHDG", "protease stability score": 1.53}, {"sequence": "DERQVKEIALEAAKAYISGNKEKLKKLGKEDVELEAGSHKYKGVEQMATVVEQFKKYGVELQITDVKVDGDKVKMRIQVHAGGTTWEFTMEIQVDGGRVDKMTIHLSEEMVKRIQKG", "protease stability score": 1.02}, {"sequence": "DEEDLHHLAREMKDLMQRGDHKRFEELADENARLIIGDKTVTGRTRIKDELRKWREEADHIQIHDVRASGNRINLDIRVVVNGQEHRFIVIIELKNGKVSQMEVEDS", "protease stability score": 1.91}]}]}
